These results are taken from publication PMC11354668.

The subject of data set [1] is ChromPure mouse IgG whole molecule (mouse). Kind of data set: BLI. The settings on record: BLI (Octet K2), SAX2.0 sensors loaded with 0.5 uM 5'-biotin DNA, IgG 0.0125-0.2 mg/mL, PBST-B, 30 C, pH not ….
The next data set deals with staphylococcal protein A (UniProt P38507). Kind of data set: BLI; Octet K2; SPA biosensor (sensor type: ProA) with mouse IgG; SPA-IgG run as positive control; the IgG concentrations and times of this kinetic run are not described. A general note: BLI is a label-free optical method that tracks binding on a fibre tip over time.

pKd: −log10 of the molar value.

For orientation: pKd means the negative decadic logarithm of the Kd, by convention in mol/L. As usually defined, the koff is a measure of how fast the partners let go of each other. A high value points to fast dissociation. A word on the kon: it is the rate constant with which the complex forms. Read a high kon as fast association.

The substance CAGTGGCTGA [2KN7] showed a pKd in data set [1] (5'-biotin) of 5.92. Still for that read-out and setting: the result for CCCCCCCCCCCCCCC [poly-C15] reads 5.87. For CGCCTAGGTTGGGTAGGGTGGTGGCG [6GN7], in data set [1] (5'-biotin (unmodified in SPA competition)), the pKd is 6.62. Turning to “ChromPure mouse IgG whole molecule (antibody)”, in the data set with staphylococcal protein A, the pKd is 7.83, the koff was 0.000716 s⁻¹ and the kon came to 48000 M⁻¹ s⁻¹.

In data set [1] (5'-biotin), GCGGCGG [5FGP] showed a negative logarithm of the Kd (pKd) of 5.82. Still for that read-out and setting: the result for GGGGGGGGGG [poly-G10] reads 6.53; that for GGGGGGGGGGGGGGG [poly-G15], 6.56; that for GGGGTGGGTGGTGGGT [7XHD], 6.28. Still for that read-out and setting: the figure for GGGGTTTTGGGG [1OTC] is 6.38; for GGGGTTTTGGGGT [1PH1-D] it is 6.06; for GGGTCGGTGCCTTA [6CRM] it is 5.95. For GGTTGGTGTGGTTGG [1RDE], the pKd in data set [1] (5'-biotin) was 5.96.

Substance TGGGGTGTGG [2A0I] gave a pKd in data set [1] (5'-biotin) of 6.06.

TGTACAATGGG [3UGO] had a pKd in data set [1] (5'-biotin) of 6.10.

In data set [1] (5'-biotin), TTTTTTTT [7JSI] had a pKd of 5.74. On the same count and under the same terms, the result for TTTTTTTTTT [4OU6] reads 6.02; that for TTTTTTTTTT [poly-T10], 5.83; that for TTTTTTTTTTTT [4JS5], 5.76. The same measure, in the same setting: the figure for TTTTTTTTTTTTTTT [2CCZ] is 6.04. As to TTTTTTTTTTTTTTT [poly-T15], the pKd in data set [1] (5'-biotin) is 6.04. In data set [1] (5'-biotin), TTTTTTTTTTTTTTTG [2C62] gave a pKd of 5.49. The same measure, in the same setting: the figure for TTTTTTTTTTTTTTTT [6SKO] is 5.97; for TTTTTTTTTTTTTTTTT [7JSG] it is 5.95. Same read-out and setting: the figure for “TTTTTTTTTTTTTTTTTTCCCTTTTTTTTTTTTTTTTTTT [5XRZ]” is 6.07; for TTTTTTTTTTTTTTTTTTTT [poly-T20] it is 6.08. On the same count and under the same terms, the result for TTTTTTTTTTTTTTTTTTTTTTTTT [4GNX] reads 5.68; that for TTTTTTTTTTTTTTTTTTTTTTTTT [poly-T25], 6.00; that for “TTTTTTTTTTTTTTTTTTTTTTTTTTTTTT [poly-T30]”, 5.84.
